{
  "source": "paper PMC7938805",
  "about": "“Biophysical and biochemical properties of Deup1 self-assemblies: a potential driver for deuterosome formation during multiciliogenesis” (Biology Open, 2021)",
  "molecular_target": "the molecule itself",
  "assay": "fluorescence microscopy of assemblies of purified protein; purified fluorescent protein (100 nM where stated) in 50 mM Tris pH 7.5, 150 mM NaCl, 1.5% glycerol with PEG8000 (up to 6%) or BSA 300 mg/ml as crowding agent, RT 10 min, confocal imaging",
  "data": [
    {"protein": "mScarlet I-Deup1 N-terminus fragment (1-466 a.a.) (domain or fragment, mouse, UniProt Q7M6Y5-1 1-466, looked up, Deuterosome protein 1 (Deup1), mouse, longer isoform NP_001360846, residues 1-466, with multiple coiled coil domains; source: E. coli BL21 gold (DE3), purified (Ni-NTA, glutathione sepharose, eluted with PreScission and TEV protease); not shown: GST, N-terminal, cleaved; mScarlet I, N-terminal, kept; His6, C-terminal, cleaved) MENQAHTTAGASPCEAELQELMEQIDIMVSNKKLDWERKMRALETRLDLRDQELANAQTCLDQKGQEVGLLRQKLDSLEKCNLVMTQNYEGQLQTLKAQFSKLTSNFEKLRLHQMKQNQIHRKESSSKEELPFELSSLNQKLEEFRAKSREWDKQEVLYQTHLVSLDAQQKLLSEKCSQFQKQAQNYQTQLNGKKQCAEDSSSEIPRLVCESDPGCEATQRDEFIIEKLKSAVSEIALSRNKLQDENQKLLQELKMYQRQCQAMEAGLSEVKSELQSRDDLLRIIEMERLHLHRELLRMGEVQTAQDNRKRVESSYSPSPKEAERKRKELFPMVSDQPNHEKELSKMRSQLYQEEGLCSEQERLRSEISELTQELHQKEVTIATVMKKAALLERQLKIELEIKERMLAKQQVSDRRYKAVRTENTHLKGMMGDLDPARYLAVDLSNKKHSQCTSINKLEYENERLR", "values": [
      {"measurement": "binding result", "result": "binds"}
    ]},
    {"protein": "mScarlet I-Deup1 (deuterosome protein 1, mouse, longer isoform) (natural protein, UniProt Q7M6Y5-1 1-601, looked up, Deuterosome protein 1 (Deup1), mouse, longer isoform NP_001360846, cloned from a mouse lung cDNA library with primers from the start to the stop codon; 601 residues by the fragment limits; Expressed from pGEX 6p-1 modified with a C-terminal 6xHis tag and a TEV site; also called mS-Deup1; full-length Deup1; source: E. coli BL21 gold (DE3), purified (Ni-NTA, glutathione sepharose, eluted with …)) MENQAHTTAGASPCEAELQELMEQIDIMVSNKKLDWERKMRALETRLDLRDQELANAQTCLDQKGQEVGLLRQKLDSLEKCNLVMTQNYEGQLQTLKAQFSKLTSNFEKLRLHQMKQNQIHRKESSSKEELPFELSSLNQKLEEFRAKSREWDKQEVLYQTHLVSLDAQQKLLSEKCSQFQKQAQNYQTQLNGKKQCAEDSSSEIPRLVCESDPGCEATQRDEFIIEKLKSAVSEIALSRNKLQDENQKLLQELKMYQRQCQAMEAGLSEVKSELQSRDDLLRIIEMERLHLHRELLRMGEVQTAQDNRKRVESSYSPSPKEAERKRKELFPMVSDQPNHEKELSKMRSQLYQEEGLCSEQERLRSEISELTQELHQKEVTIATVMKKAALLERQLKIELEIKERMLAKQQVSDRRYKAVRTENTHLKGMMGDLDPARYLAVDLSNKKHSQCTSINKLEYENERLRSDLAKLHGNGKAAWPNQSSYGEAGAYVFQSQLKTETSGDRISQDCELNRSPTPLSPLPFQTKEMASPLVGDNEVLALSPPDISFRASLAAQHFLMEEERRAKELEKLLNTHIDELQRHTEFTLNKYTKLKQSRHI", "values": [
      {"measurement": "binding result", "result": "binds"}
    ]}
  ]
}
